Source: article PMC9024677
One block for each substance: values may come before it.

Assays:
[1] = molecular target: human cardiac α-actin mutant p.R312H (human); assay: other fluorescence titration; critical concentration of polymerization (monomer to filament): 0.1 to 10 μM c-actin with 5% pyrene-actin, 2 mM MgCl2 and 0.05 M KCl overnight; steady-state fluorescence against actin concentration
[2] = molecular target: human cardiac α-actin mutant p.R312H (human); assay: pyrene-actin polymerization assay; 5 μM actin with pyrene-labelled skeletal muscle actin (20:1) in G-buffer; polymerization started with 2 mM MgCl2 (and 0.05 M KCl); fluorescence increase followed over time
[3] = molecular target: human cardiac α-actin mutant p.A295S (human)
[4] = molecular target: human cardiac α-actin mutant p.R312H (human)
[5] = molecular target: human wild type cardiac α-actin (recombinant) (human) (UniProt P68032)
[6] = molecular target: bovine cardiac α-actin (bovine) (UniProt Q3ZC07)
[7] = molecular target: human cardiac α-actin mutant p.E361G (human)
[8] = molecular target: human cardiac α-actin mutant p.E361G (human); assay: other fluorescence titration; critical concentration of polymerization (monomer to filament): 0.1 to 10 μM c-actin with 5% pyrene-actin, 2 mM MgCl2 and 0.05 M KCl overnight; steady-state fluorescence against actin concentration
[9] = molecular target: human cardiac α-actin mutant p.E361G (human); assay: pyrene-actin polymerization assay; 5 μM actin with pyrene-labelled skeletal muscle actin (20:1) in G-buffer; polymerization started with 2 mM MgCl2 (and 0.05 M KCl); fluorescence increase followed over time
[10] = molecular target: human cardiac α-actin variant p.R312K (human); assay: other fluorescence titration; critical concentration of polymerization (monomer to filament): 0.1 to 10 μM c-actin with 5% pyrene-actin, 2 mM MgCl2 and 0.05 M KCl overnight; steady-state fluorescence against actin concentration
[11] = molecular target: human cardiac α-actin variant p.R312K (human); assay: pyrene-actin polymerization assay; 5 μM actin with pyrene-labelled skeletal muscle actin (20:1) in G-buffer; polymerization started with 2 mM MgCl2 (and 0.05 M KCl); fluorescence increase followed over time
[12] = molecular target: bovine cardiac α-actin (bovine) (UniProt Q3ZC07); assay: other fluorescence titration; critical concentration of polymerization (monomer to filament): 0.1 to 10 μM c-actin with 5% pyrene-actin, 2 mM MgCl2 and 0.05 M KCl overnight; steady-state fluorescence against actin concentration
[13] = molecular target: bovine cardiac α-actin (bovine) (UniProt Q3ZC07); assay: pyrene-actin polymerization assay; 5 μM actin with pyrene-labelled skeletal muscle actin (20:1) in G-buffer; polymerization started with 2 mM MgCl2 (and 0.05 M KCl); fluorescence increase followed over time
[14] = molecular target: human wild type cardiac α-actin (recombinant) (human) (UniProt P68032); assay: other fluorescence titration; critical concentration of polymerization (monomer to filament): 0.1 to 10 μM c-actin with 5% pyrene-actin, 2 mM MgCl2 and 0.05 M KCl overnight; steady-state fluorescence against actin concentration
[15] = molecular target: human wild type cardiac α-actin (recombinant) (human) (UniProt P68032); assay: pyrene-actin polymerization assay; 5 μM actin with pyrene-labelled skeletal muscle actin (20:1) in G-buffer; polymerization started with 2 mM MgCl2 (and 0.05 M KCl); fluorescence increase followed over time
[16] = molecular target: deoxyribonuclease I (DNase I) (bovine) (UniProt P00639)
deoxyribonuclease I (DNase I) (bovine), sequence (P00639 23-282): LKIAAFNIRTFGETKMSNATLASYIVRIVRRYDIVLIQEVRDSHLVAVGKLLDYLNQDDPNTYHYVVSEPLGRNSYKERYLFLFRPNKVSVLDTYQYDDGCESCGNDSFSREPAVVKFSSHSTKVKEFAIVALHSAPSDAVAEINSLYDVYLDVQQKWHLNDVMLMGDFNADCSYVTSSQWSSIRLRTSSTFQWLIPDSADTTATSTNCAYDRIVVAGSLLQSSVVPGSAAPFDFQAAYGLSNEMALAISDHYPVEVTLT

[17] = molecular target: human cardiac α-actin mutant p.A295S (human); assay: other fluorescence titration; critical concentration of polymerization (monomer to filament): 0.1 to 10 μM c-actin with 5% pyrene-actin, 2 mM MgCl2 and 0.05 M KCl overnight; steady-state fluorescence against actin concentration
[18] = molecular target: human cardiac α-actin mutant p.A295S (human); assay: pyrene-actin polymerization assay; 5 μM actin with pyrene-labelled skeletal muscle actin (20:1) in G-buffer; polymerization started with 2 mM MgCl2 (and 0.05 M KCl); fluorescence increase followed over time

Substance: human cardiac α-actin mutant p.E361G (natural protein)
- critical concentration of polymerization (Cc) [8]: 0.2 µM
- half time of polymerization (t 1/2) [9]: 1.6 min

Substance: human cardiac α-actin variant p.R312K (natural protein)
- critical concentration of polymerization (Cc) [10]: 0.21 µM
- half time of polymerization (t 1/2) [11]: 3.08 min

Substance: bovine cardiac α-actin (from UniProt Q3ZC07 1-377) (natural protein)
- critical concentration of polymerization (Cc) [12]: 0.21 µM
- half time of polymerization (t 1/2) [13]: 2.7 min

Substance: human wild type cardiac α-actin (recombinant) (from UniProt P68032 1-377) (natural protein)
- critical concentration of polymerization (Cc) [14]: 0.2 µM
- half time of polymerization (t 1/2) [15]: 2.5 min
- inhibition of DNase I activity (hyperchromicity assay), 3.2 μM DNase I pre-incubated with zero to 6.4 μM G-actin; concentration for complete inhibition against skeletal muscle actin ([16]; scale: fold higher concentration than skeletal muscle actin): 3

Substance: human cardiac α-actin mutant p.A295S (natural protein)
- critical concentration of polymerization (Cc) [17]: 0.4 µM
- half time of polymerization (t 1/2) [18]: 8.5 min
- inhibition of DNase I activity (hyperchromicity assay), 3.2 μM DNase I pre-incubated with zero to 6.4 μM G-actin; inhibitory capacity against wt c-α-actin [16]: 33%

More lines, now with the values ahead:

- critical concentration of polymerization (Cc) [1]: 0.7 µM
- half time of polymerization (t 1/2) [2]: 10.8 min
Substance: human cardiac α-actin mutant p.R312H (natural protein)

- apparent KM of the myosin-S1 ATPase stimulation by F-c-actin (double reciprocal plot), pCa 4.3, without cTm/cTn [3]: 0.966 µM
- apparent KM of the myosin-S1 ATPase stimulation by F-c-actin decorated with cTm/cTn (6:1:1), pCa 4.3 [3]: 3.31 µM
- apparent KM of the myosin-S1 ATPase stimulation by F-c-actin (double reciprocal plot), pCa 4.3, without cTm/cTn [4]: 0.096 µM
- apparent KM of the myosin-S1 ATPase stimulation by F-c-actin decorated with cTm/cTn (6:1:1), pCa 4.3 [4]: 0.0243 µM
- apparent KM of the myosin-S1 ATPase stimulation by F-c-actin (double reciprocal plot), pCa 4.3, without cTm/cTn [5]: 0.165 µM
- apparent KM of the myosin-S1 ATPase stimulation by F-c-actin decorated with cTm/cTn (6:1:1), pCa 4.3 [5]: 0.217 µM
- apparent KM of the myosin-S1 ATPase stimulation by F-c-actin (double reciprocal plot), pCa 4.3, without cTm/cTn [6]: 0.081 µM
- apparent KM of the myosin-S1 ATPase stimulation by F-c-actin (double reciprocal plot), pCa 4.3, without cTm/cTn [7]: 0.075 µM
- apparent KM of the myosin-S1 ATPase stimulation by F-c-actin decorated with cTm/cTn (6:1:1), pCa 4.3 [7]: 0.173 µM
Substance: rabbit skeletal muscle myosin subfragment-1 (domain or fragment)
